This is an account of results in publication PMC5503940.

The target in assay [1] is αβ-tubulin heterodimer.
Assay [2] deals with αβ-tubulin heterodimer. Nature of the assay: SEC-MALS; KW803 (Shodex) column, 20 mM Pipes pH 6.8, 10 μM AMPPNP; 30 μl at about 3 mg/ml tubulin–Kif2C–DARPin complexes, 0.5 ml/min. In general terms: SEC sorts molecules by how far they enter the pores of the column.
Assay [3] deals with αβ-tubulin heterodimer. This is another data set of the same source.

“Kif2C-(sN+M) (short neck+motor construct of human Kif2C/MCAK) (from UniProt Q99661 216-598) (domain or fragment)” gave a microtubule-stimulated ATPase, K mMT; tubulin as Taxotere-stabilized microtubules with αβ-tubulin heterodimer [1] of 1.1 µM.

As to “Kif2C-(sN+M) R420S (from UniProt Q99661 216-598) (domain or fragment)”, in the assay with αβ-tubulin heterodimer [1], the microtubule depolymerase activity (turbidity, percent of wild-type Kif2C-(sN+M)) amounted to 5.7% and the microtubule-stimulated ATPase, k cat; tubulin as Taxotere-stabilized microtubules worked out at 0.33 s⁻¹.

“Kif2C-(sN+M) R510A (from UniProt Q99661 216-598) (domain or fragment)” returned a microtubule-stimulated ATPase, K mMT; tubulin as Taxotere-stabilized microtubules with αβ-tubulin heterodimer [1] of 17 µM.

“Kif2C-(sN+M) R540A (from UniProt Q99661 216-598) (domain or fragment)” had a microtubule depolymerase activity (turbidity, percent of wild-type Kif2C-(sN+M)) in the assay with αβ-tubulin heterodimer [1] of 5.5%.

Take “Kif2C-(sN+M)-(G4S)3-DARPin (Kif2C-(sN+M) linked to the D1 DARPin by a (G4S)3 peptide) (from UniProt Q99661 216-598)”: in the assay with αβ-tubulin heterodimer [2], the stoichiometry N (tubulin:construct) is 1.

Consider “Kif2C-(sN+M)-(G4S)4-GGS-DARPin (Kif2C-(sN+M) fused to the A-C2 DARPin) (from UniProt Q99661 216-598)”, for which, in the assay with αβ-tubulin heterodimer [3], the microtubule-stimulated ATPase, apparent K m (K mMT); tubulin as Taxotere-stabilized microtubules was 20 µM; the tubulin-stimulated ATPase, apparent Michaelis–Menten constant is 0.5 µM; the tubulin-stimulated ATPase, k cat amounted to 0.1 s⁻¹.
